Measurements published in patent US20060128606A1, “Fibrils” (priority 1998, published 2006).
Marks after values point to notes of the source that are not given here. Ends that are not written are not given here.

B1: muscle acylphosphatase: human muscle acylphosphatase protein, forms amyloid fibrils in 25% v/v trifluoroethanol (protein, UniProt P14621 2-99, looked up)
Acylphosphatase-2: STAQSLKSVDYEVFGRVQGVCFRMYTEDEARKIGVVGWVKNTSKGTVTGQVQGPEDKVNSMKSWLSKVGSPSSRIDRTNFSNEKTISKLEYSNFSIRY

Experiments:
Assay type in all cases: physicochemical
[1] = 1D NMR estimate of percentage of peptide visible in solution; conditions: 10 mg/mL in 50% acetonitrile
Protocol: A series of 1D spectra was used to estimate the percentage of peptide visible by solution NMR. These 1D spectra were all acquired with a gain of 7,000 and 256 scans on the same 500 MHz NMR spectrometer, in consecutive experiments. The concentration of a tryptophan solution was calculated from its absorbance at 280 nm. The integration of the indole resonances in these ID spectra from the tryptophan and peptide solutions was used to estimate the concentration of the peptide solutions.
Any small oligomers (whose signals merge with the monomer signal if conformational interconversion takes place on a time scale shorter than that resolvable by this method, i.e. less than ˜100 ms) can only exist as minor populations. […] The remainder must therefore be in large soluble aggregates whose overall tumbling times are too large to give resolvable NMR […].

[2] = Hydrodynamic radii by NMR diffusion measurements (pulse field gradient); conditions: 10 mg/mL peptide in 50% acetonitrile
Protocol: All NMR spectra were acquired at ^1H frequencies of 500 or 600 MHz on homebuilt NMR spectrometers at the Oxford Centre for Molecular Sciences. One dimensional (1D) spectra typically contain 8K complex data points. Two dimensional (2D) experiments were acquired with 2K complex data points in the t2 dimension, and in phase-sensitive mode using time proportional phase incrementation (TPPI) for quadrature detection in t1. Diffusion constants were determined using pulse field gradient experiments with 8K complex points. Spectral widths of 8,000 Hz were used for all experiments. […] The water signal was suppressed either by using presaturation during the 1.2 s relaxation delay or by using a gradient double echo. […] Data were processed using Felix 2.3 (BIOSYM) on Sun workstations. Typically, the data were zero filled once, and processed with a double exponential window function for the 1D, and a sinebell squared function, shifted over 90° for each dimension of the 2D spectra. All spectra were referenced to an internal standard of dioxan at 3,743 ppm.

[3] = β-sheet content from CD ellipticity at 215 nm; conditions: 0.4 mg/mL
Protocol: CD spectra were recorded on a Jasco J720 spectropolarimeter using quartz cuvettes of 1 mm pathlength, at 1 nm intervals from 195 to 250 nm. Routinely, CD samples were examined 30 min after dilution from the peptide stock solution containing 50% acetonitrile.
Calculation of the β-sheet content was carried out using the ellipticity at 215 nm normalized to a per residue basis (units: deg cm^2/dmol).

[4] = Congo red binding assay of amyloid fibril formation (CspB peptides); design: key: (++) strongly positive; (+) weakly positive; (0) no positive evidence
Protocol: For the congo red binding assay of fibril formation, absorption spectra of a 10 μM solution of the dye in the assay buffer (5 mM phosphate pH 7.41 […]) before and after addition of the peptide solution were recorded on a Perkin Elmer (Foster City, Calif.) Lambda 16 spectrometer in the range of 400 to 700 nm.
Analysis by three independent techniques of samples produced by dilution of concentrated solutions of all three peptides ([…]) from 50% to either 10 or 90% acetonitrile was carried out to screen for the presence of amyloid fibrils.
(§1) Aggregated states of all three peptides produced in 10 and 90% acetonitrile were analysed using these techniques.

[5] = Transmission electron microscopy screen for amyloid fibrils (CspB peptides); design: key: (++) strongly positive; (+) weakly positive; (0) no positive evidence; conditions: 2.0 mg/mL peptide
Protocol: Fibril formation and morphology were examined by transmission electron microscopy (EM). Peptide samples were dried onto formvar-and carbon-coated grids and negatively stained with 1% phosphotungstic acid (PTA). Grids were examined in a JEOL JEM-1010 electron microscope at 80 kV excitation voltage.
(§2) Analysis by three independent techniques of samples produced by dilution of concentrated solutions of all three peptides (10.0 mg/mL diluted to 2.0 mg/mL final concentration) from 50% to either 10 or 90% acetonitrile was carried out to screen for the presence of amyloid fibrils.
as §1

[6] = Light microscopy of congo red stained precipitates, green birefringence (CspB peptides); design: key: (++) strongly positive; (+) weakly positive; (0) no positive evidence; conditions: 2.0 mg/mL peptide
Protocol: Yellow green birefringence indicates the presence of cross […].
as §2, §1

[7] = Solubility in aqueous buffer or acetonitrile cosolvent; conditions: aqueous buffer; aqueous buffers, pH 6.0 to 7.2, no cosolvent; read-out: Solubility under similar conditions (aqueous buffers)
Protocol: In contrast, none of the three peptides are soluble under similar conditions to any significant extent; CspB-2, for example, dissolves only to ˜0.2 mg/mL. To solubilize the peptides, acetonitrile was used as a cosolvent at pH 4.0 (formic acid, unbuffered). […] A standardized set of combinations of peptide concentration and solvent composition was used, involving peptide concentrations of 0.4, 2 and 10 mg/mL, and acetonitrile concentrations of 10, 50 and 90%.

[8] = Congo Red absorption and birefringence of muscle acylphosphatase aggregate
Protocol: (§3) Muscle acylphosphatase was purified as previously reported (A. Modesti et al. (1995) Protein Express Purif. 6, 799) and incubated at a concentration of 0.375 mg/ml (34 μM) in 25% v/v trifluoroethanol (TFE), acetate buffer, pH 5.5 at 25° C. under constant stirring. Aliquots were withdrawn at regular time intervals for electron microscopy and spectroscopic analysis. Circular dichroism spectra were acquired directly by means of a Jasco J-720 spectropolarimeter and cuvettes of 1 mm path length. Electron micrographs were acquired by a JEM 1010 transmission electron microscope at 80 kV excitation voltage. A 3 μL sample of protein solution was placed and dried for five minutes on a Formvar and carbon-coated grid. The sample was then stained with 3 μL 1% phosphotungstic acid solution and observed at magnifications of 25-100k.
(§4) Thioflavin T and Congo Red assays were performed according to Le Vine III (H. Le Vine III (1995) Amyloid: Int. J. Exp. Clin. Invest. 2,1.) and Klunk (W. E. Klunk et al. (1989) J. Histochem. Cytochem. 37, 1293), respectively. For Congo Red birefringence experiments aliquots of protein were air dried onto glass slides. The resulting films were stained with a saturated solution of Congo red and sodium chloride, corrected to pH 10.0 with 1% sodium hydroxide. The stained slides were examined by an optical microscope between crossed polarizers.

[9] = Thioflavin T assay of muscle acylphosphatase aggregate; conditions: aggregate after two weeks in 25% v/v TFE, pH 5.5, 25° C.
Protocol: as §3, §4

[10] = 10% acetonitrile, first experiment, 1.6 mg/mL peptide
[11] = 10% acetonitrile, second experiment, 2.0 mg/mL peptide
[12] = 90% acetonitrile, first experiment, 1.6 mg/mL peptide
[13] = 90% acetonitrile, second experiment, 2.0 mg/mL peptide
[14] = 10% acetonitrile, first experiment
[15] = 90% acetonitrile, first experiment
[16] = 90% acetonitrile, second experiment

Row | Molecule | Total peptide concentration detectable in the NMR spectra [1] [%] | Hydrodynamic Stokes radius [2] | β structure content (CD) ([3]; 90% acetonitrile) [%] | Amyloid fibril formation, Congo Red [4, 10] | Amyloid fibril formation, Congo Red [4, 11] | Amyloid fibril formation, Congo Red [4, 12] | Amyloid fibril formation, Congo Red [4, 13] | Amyloid fibril formation, EM ([5]; 10% acetonitrile) | Amyloid fibril formation, EM ([5]; 90% acetonitrile) | Amyloid fibril formation, LM green birefringence [6, 14] | Amyloid fibril formation, LM green birefringence ([6]; 10% acetonitrile, second experiment) | Amyloid fibril formation, LM green birefringence [6, 15] | Amyloid fibril formation, LM green birefringence [6, 16] | solubility [7] [µg/mL] | β-sheet content (CD) ([3]; 2.5% acetonitrile) [%] | β-sheet content (CD) ([3]; 15 to 70% acetonitrile) [%] | β-sheet content (CD) ([3]; 97.5% acetonitrile) [%] | Congo Red birefringence under cross-polarised light ([8]; fibrils after two weeks of incubation) | Congo Red difference spectrum, maximum intensity ([8]; spectrum of aggregate plus dye minus aggregate alone and dye alone) [nm] | Increase of the 482 nm fluorescence (excitation 440 nm) of Thioflavin T [9]
1 | CspB-1: peptide, residues 1-22 of B. subtilis cold shock protein CspB, corresponding to the first two β-strands (MLEGKVKWFNSEKGFGFIEVEG; UniProt P32081 1-22, looked up, fragment) | ~20 | 1.60^a nm | ~70 | ++, ++ | ++, ++ | ++ | 0 | ++ | 0 | ++, ++ | ++, ++ | ++, ++ | ++, ++ | – | – | – | – | – | – | –
2 | MLEGKVKWFNSEKGFGFIEVEGQDDVFVHFSAIQG [CspB-2] | – | 1.68 nm | – | ++ | 0 | 0 | ++ | ++ | ++ | + | – | ++ | 0 | ~200 | 100 | ~20 | 71.5 | – | – | –
3 | B1 | – | – | – | – | – | – | – | – | – | – | – | – | – | – | – | – | – | characteristic green birefringence | 540 | three fold increase
